Data from a protein production outcome set (Wang et al. 2014).

Test: label from the status in PepcDB records

Sequence: MSSLVGLHYATVLPLAAYLLLAVVILLLAMGRDGAARKTFTASLLMIVLGWIPYIAAFLLLDYSLDEVAKNASDELSPYLRIGAAWSGGGGSLYLFSAFLSLAILLQMLLNKGLNRRAMAVFTLLVLTSMTSATLMGAFGTGPGERGGLGINPVLKNYWVVPHPTTTFLGYSFILVGSVALVLGYYRTGLPIQLLGLAFLTFGLVFGGMWSYETFGWGGYWAWDPVETSQLAVWLATVASIHMIGPLRSLNRGFAAYAASSVFLALYVTRSGVSPLHSFAAESFSAVLLLSASLVMLALSMLLFSEGVGETLEKWKSRLQDARWPPRIAEMNLSNILLTVGSVSIALSALIVYSSLLTPSVLKLVGLDTQPPSFEQGVRFYNRLLIPLALVSLYAVAGYYVSVRAGAKAAYSLFATLTVVLAIMGLATVKNTIIISPLSDTTTNLASATLLAAGSISGSVLLAMSLWMLYGMVKGKVAKSVHTLRIVLEKLVHATMIMILVSVAMSGSYAYNQGYSEEVLVPLGGEVSVMGVTISYEGYDYELHQGTVDLKNNLDPSSAILITAREALNMMDEDLSSTIREYRLASAESQSDRTLQTLLKASASNSEYRGVFTSTRGVADAAVVDVRTGENISNIQTAGETVLQLEDPTLEVTIDPKLDPETGRIEGGALSVVFYPERLVVYGIGSPVSLDPYSYLYVRFREPVEINLDDITVNMEEVVVYSTGGSSIEGVVSGQSVLFEGVAIRVVSGELSFGSMNIELPYQLDRGEFFYFMVYKGQAEVLDDILSSSISDLLESGIAGLAAGEDMDDFNVPRRAPAGVSLRLFMEVNGEPVEADLRFEANGEAIGIHGLVIDTIILRRGLTNVYITVQAPLVSGHFGEYHELMVYYLNEAMNTLRPEEYLALASVMAAGYNIASIVSSPSKERAALEVERATIDLYLLSEKLDEKRSSAAEGIVVSVKIVPGVPLLWLTGVLAGVLLLAMASIHFYLGFRQGRLIDT
- protein production: failed

Sequence: MSSMVEVEHWNTLRLRIYIGENDKWEGRPLYKVIVEKLREMGIAGATVYRGIYGFGKKSRVHSSDVIRLSTDLPIIVEVVDRGHNIEKVVNVIKPMIKDGMITVEPTIVLWVGTQEEIKKFEEDAIAERQ
- protein production: not failed

Sequence: MSSNIAVVGDRDTVTGFRLGGVREGYVVETPDEAEETIRNLIRDGFSIIIVTEKIGDELREFIEETTSSSALPMIIEIPDKTGPSERETDPLRDLIKRVIGVEMVK
- protein production: failed

Sequence: MSSNVPADMINLRLILVSGKTKEFLFSPNDSASDIAKHVYDNWPMDWEEEQVSSPNILRLIYQGRFLHGNVTLGALKLPFGKTTVMHLVARETLPEPNSQGQRNREKTGESNCCVIL
- protein production: not failed

Sequence: MSSPGGGTRFALVAGTTETAGRAGISAAGADPELMSVTPAADAELVTYGTPVRTDVTPVSPSGCPTPALVTRAAREVLGFDVTVVDGGLAEKTGAPTVSVGARPGKDIAEQDPVSTAHGAFAAARQFGQSLPADELYLGETIPGGTTTALGVLRALGEDGMVSSSLPENPTAQKSEVVAEGLQASSLEPGDAANEPKRAVRRMGDPVLATLAGLTAGAVESDTAVTLAGGSQCVAVAALVRHGGYEGPLGLATTSYVADDESADVRASVDRLDLDLTVTDPGFDRSDHVAMERFVAGEAKEGVGMGGALALAD
- protein production: not failed

Sequence: MSSQLDECNRLLWEKCPVGLVLWRKNGALIDANSTYAAILGSTVPETLNFNYWQITPENYLASERTILEQLEQTGCHQAYEKEYLHQDGHLVPVKVSTVIIEKDGEKLMWSSVEDIS
- protein production: not failed

Sequence: MSSQVIPALPKTFSSSLDLWREKNDQLVRQAKQLTRDSRPSLRRQQSAQDTLEGLRELLLTLQGLPAAVPALPLELTVLCNCIILRASLVQAFTEDLTQDLQRGLERVLEAQHHLEPKSQQGLKELWHSVLSASSLPPELLPALHCLASLQAVFWMSTDHLEDLTLLLQTLNGSQTQSSEDLLLLLKSWSPPAEESPAPLILQDAESLRDVLLTAFACRQGFQELITGSLPHAQSNLHEAASGLCPPSVLVQVYTALGACLRKMGNPQRALLYLTEALKVGTTCALPLLEASRVYRQLGDRAAELESLELLVEALSATHSSETFKSLIEVELLLPQPDPASPLHCGTQSQAKHLLASRCLQTGRAEDAAEHYLDLLAMLLGGSETRFSPPTSSLGPCIPELCLEAAAALIQAGRALDALTVCEELLNRTSSLLPKMSSLWENARKRAKELPCCPVWVSATHLLQGQAWSQLKAQKEALSEFSQCLELLFRTLPEDKEQGSDCEQKCRSDVALKQLRVAALISRGLEWVASGQDTKALSDFLLSVQICPGNRDGSFYLLQTLKRLDRKNEASAFWREAHSQLPLEDAAGSLPLYLETCLSWIHPPNREAFLEEFGTSVLESCVL
- protein production: failed

Sequence: MSSRMARLGLSTYRLAGTVASPVVGLYLTYRTAKGKEDRARRLERFGYPSANRPQGPLVWFHAASVGETNAVIPLIREIRRRDIHVILTTGTITSARLAAERLGQEAIHQYVPLDLKPSVSRFLDYWQPDCAIIAESEIWPATVLELGRRRIPQILVNARMSDRSFARWRRRQSIAEALFENLALVIAQSDVDAERFRDLGAVPVITSGNLKVDTDAPPYDSAVFARYKKQIGDRKTWAAISTFDGEENAAGIVHRVLKERDRQLTIIVPRHPERSDEIEAALVKQGLKVARRTRDDVLSADVDIFLGDTIGEMGLYLRLTEIAFVGRSLFAEGGQNPLEPAMLGCAILSGGNVQNFREAYQKLARSGSARMVRDTEMLAKGVHYLLTNDEARRNMIEAGVATVHEMRGALSATVKGLEPYINPLTVKARLLPKAAAQV
- protein production: failed

Sequence: MSSRQQDTAPCNHRFSGSVPVFSAAPCPHPAASFISLPAGSPYDEKRFVPAPRRHVPMLNYIWSGLIIGSLLFALTVDTQELVENRFRNETALPVALDFPDGYAPDARRQPVEIRIDSATYRDVYGVNAAPDPVYAGTLVQTQEGRKVEFDPDADLPEPLATIQSFHATDDNPALRGALQGTSRTTAGVGRTETALQFEPVRFRKLNDIAQAALNFAETAASLALSLIGVLGLMLGLVKIGEEAGLIESLTGIVQPILSPLFPNVPDDHPALANISLNLLANVFGLGNAATPLGIKAMEDLQELNPSDEKASDDMVMLLALNTSSVQLVPPSLLVAIMGLQINQLFFSITLATLCSTVAGILGTLALHRLPYFRATAPHRTADAEDPDE
- protein production: failed

Sequence: MSSRTRARGSKRAAGVHTVSIPRQRGRRRAQPFVIVFPESPSLTREALGFIGRALWKGRRALAPTALALLAFAVTGLLHVMAWWSSLILAPLAAGPLVWLAVMQVRRPGRGAVVLWRAGLALLATFTAAWAALAAGFGPLAGPLDLVWLLMWIAAQTAWLFVRRSH
- protein production: failed

Sequence: MSSSNQDISIENTDLLTEISVAYYQDGATQEEISRKFAISRAKVGRMLKQARDEGIVEITVKYHPVFSAKIEQRLIERFGVKRALVALDQPNEEAQRLQVSGLVSNYLTSTLKNGMVVTVGQGRNVSSVAHHIGVITPRDCKFVCGIGGIHPRGGMYNADHICRQLAKKYGGTSETLYAPAYAENREQKMAFMQNATVKQTLDLARKADVALVGIGDMSENSYMVDLGWFTPDEVVQSRLKQGVVGDFAGYDFFDIHGNVANTVMSDRVIGLGIEEFRPIAEVIAIAAENSKPLALLGALRTGAIDVIATSVSNALTVLNLDEQMHGNAASES
- protein production: failed

Sequence: MSSSSVEQQVVQHFSHTHPLTKVDEYGEFTCGGCKTYGFGKTYRCAPCDYVLHDHCATCPFTLISFMHPQHELRLFVNGSENMCNICHRLVEGVYYHCETCGFDVHPLCTQHHQHVSYVPHPAHLLELSQCGASNTCMVCRGAILSWRYKCGPCMLDVHVECVNSSAPAATEPQMDLNTSQDPQPYNDECGGIHNYEHTNKGQVSGPSKRRRVFRFFKDVTVEVVSSIITEML
- protein production: failed

Sequence: MSSTILVLGATGTVGRHVVDGLLAKGEAVKAASRAGKPVAAAEGVAFDYARPETFGPALEGVDRAYVLLASGYVDSKGLLLPVIEAAATRKVKVVLQSVIGVDADDSIPYRQVEIALEKSDTPYVILRPNWFSDNFHTFWKPGIDHGQIALPAAEGKSSFIDARDIAASGVAVLTSSSFDGKAFNLTGPEALSYAEAAAILSEAIGKPVTYNAVSDEAFIEMLTGAGVPAGYASFLASIFYPVRQNWTAVMTGDVETLTGKAPRSLKTYAADYAAALKA
- protein production: failed

Sequence: MSSTSPNLQKAIDLASKAAQEDKAGNYEEALQLYQHAVQYFLHVVKYEAQGDKAKQSIRAKCTEYLDRAEKLKEYLKNKEKKAQKPVKEGQPSPADEKGNDSDG
- protein production: not failed
